Reference: patent US20250076311A1 (Chugai, published 2025)

Experiments:
[1] = target: T1, cynomolgus monkey FcγRIIIaS extracellular domain, His-tagged (cynomolgus monkey, UniProt Q8SPW2 21-206 at identity 1.00)); test: SPR Biacore, KD(SG1)/KD(variant)
T1 construct: also called cyno FcγRIIIaS; cynoFcγRIIIaS; not shown: C-terminal His-tag
T1 chain: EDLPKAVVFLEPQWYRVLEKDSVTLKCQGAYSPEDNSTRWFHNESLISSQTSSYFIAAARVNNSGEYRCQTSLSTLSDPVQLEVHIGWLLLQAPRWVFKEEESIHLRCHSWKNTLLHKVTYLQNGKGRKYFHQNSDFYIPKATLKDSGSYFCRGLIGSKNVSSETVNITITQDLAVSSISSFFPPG

[2] = target: T2, human FcγRIIb extracellular domain, His-tagged (human, UniProt P31994 43-217); test: SPR Biacore, KD(SG1)/KD(variant)
T2 construct: also called FcgRIIb (human); not shown: C-terminal His-tag
T2 sequence: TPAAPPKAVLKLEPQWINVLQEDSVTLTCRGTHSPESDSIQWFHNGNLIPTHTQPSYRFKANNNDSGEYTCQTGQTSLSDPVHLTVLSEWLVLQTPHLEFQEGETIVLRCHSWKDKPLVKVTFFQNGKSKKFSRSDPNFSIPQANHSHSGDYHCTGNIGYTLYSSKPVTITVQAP

KD fold (SG1 = 1) [1]: 0.62 fold
KD fold (SG1 = 1) [2]: 2.2 fold
B1: M103205H795-MY068/M103202L889-SK1 (antibody, human IgG1, kappa, name in EU numbering)
heavy: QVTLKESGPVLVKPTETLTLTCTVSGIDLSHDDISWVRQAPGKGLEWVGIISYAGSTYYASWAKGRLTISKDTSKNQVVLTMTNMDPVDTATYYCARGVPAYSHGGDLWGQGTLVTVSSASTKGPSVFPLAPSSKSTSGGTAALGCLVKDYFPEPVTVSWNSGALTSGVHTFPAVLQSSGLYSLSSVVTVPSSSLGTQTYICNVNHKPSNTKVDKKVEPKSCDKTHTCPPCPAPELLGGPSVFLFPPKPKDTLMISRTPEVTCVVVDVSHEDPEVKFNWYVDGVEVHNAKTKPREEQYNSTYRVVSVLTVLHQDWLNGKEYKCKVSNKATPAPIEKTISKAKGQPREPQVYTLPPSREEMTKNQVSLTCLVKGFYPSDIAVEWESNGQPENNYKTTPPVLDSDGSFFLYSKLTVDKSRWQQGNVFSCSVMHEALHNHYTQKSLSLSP
light: DIVMTQSPATLSLSPGERATLSCTSSQSVYHANWLSWFQQKPGQPPKLLIYWASTLAYGVPSRFSGSGSGTDFTLTISSLQPEDAATYYCAGGYGGGRYAFGQGTKVEIKRTVAAPSVFIFPPSDEQLKSGTASVVCLLNNFYPREAKVQWKVDNALQSGNSQESVTEQDSKDSTYSLSSTLTLSKADYEKHKVYACEVTHQGLSSPVTKSFNRGEC
notes: Substitution introduced into M103205H795-SG1; EU numbering
